Reference: US20090239800A1 (GEORGIA TECH RESEARCH CORPORARION, published 2009)
No end group written: not given here.

Tests used:
rabbit ClC-2 [1] = target: T1, rabbit ClC-2 (rabbit, UniProt P51789 1-898); assay: dose-response of inhibition of ClC-2 window current, inside-out multi-channel patches, synthetic toxin backfilled in the pipette, VM=-100 mV (FIG. 3B)
T1 construct: whole, on cells; Voltage-gated chloride channel recorded in whole oocytes (TEVC) or in excised inside-out patches; also called ClC-2 channel
T1 sequence (looked up): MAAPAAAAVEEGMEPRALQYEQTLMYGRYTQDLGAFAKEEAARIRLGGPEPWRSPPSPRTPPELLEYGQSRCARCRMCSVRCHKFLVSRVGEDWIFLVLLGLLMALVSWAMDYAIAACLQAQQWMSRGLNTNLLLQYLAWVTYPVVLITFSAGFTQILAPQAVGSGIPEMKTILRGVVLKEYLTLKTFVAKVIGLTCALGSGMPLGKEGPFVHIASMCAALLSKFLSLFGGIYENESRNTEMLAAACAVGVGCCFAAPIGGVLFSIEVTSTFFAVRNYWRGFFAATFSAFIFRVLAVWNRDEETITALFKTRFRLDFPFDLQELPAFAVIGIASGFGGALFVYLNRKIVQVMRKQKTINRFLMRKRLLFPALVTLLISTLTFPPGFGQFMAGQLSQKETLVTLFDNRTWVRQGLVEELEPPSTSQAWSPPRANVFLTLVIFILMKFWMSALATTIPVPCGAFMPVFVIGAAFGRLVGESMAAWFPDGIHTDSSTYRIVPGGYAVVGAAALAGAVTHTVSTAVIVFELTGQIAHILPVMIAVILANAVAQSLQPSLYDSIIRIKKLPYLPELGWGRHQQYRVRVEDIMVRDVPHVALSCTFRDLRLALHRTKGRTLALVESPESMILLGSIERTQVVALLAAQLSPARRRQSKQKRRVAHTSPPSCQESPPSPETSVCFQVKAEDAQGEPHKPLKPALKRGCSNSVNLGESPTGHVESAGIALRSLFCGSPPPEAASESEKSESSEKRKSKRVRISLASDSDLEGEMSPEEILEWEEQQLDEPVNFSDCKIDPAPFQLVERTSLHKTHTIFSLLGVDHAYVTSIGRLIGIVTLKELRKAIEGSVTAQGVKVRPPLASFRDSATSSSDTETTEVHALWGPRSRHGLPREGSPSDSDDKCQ

ClC-1 = assay: cell-based or functional assay
rabbit ClC-2 [2] = target: T1, rabbit ClC-2; assay: cell-based or functional assay

B1: GaTx2 (peptide)
peptide: VSCEDCPDHCSTQKARAKCDNDKCVCEPI
modifications: disulfide (positions not given here)
notes: also called Leiuropeptide II; LPII
- Kd (rabbit ClC-2 [1]): 0.012 nM
- ClC-1 tail currents at VM=-120 mV from +60 mV, 10 nM GaTx2 against after washout of toxin (ClC-1): 1.04 fold
- latency to first opening upon stepping from VM 0 to -100 mV, 20 pM GaTx2 (rabbit ClC-2 [2]): 7.67 fold increase
